Experimental data published in US20100098761A1, “Polymer Compositions For Biomedical And Material Applications” (University of Massachusetts Medical School, priority 2007, published 2010).

System: murine macrophage RAW264.7 cells
Experiment: Osteoclastic differentiation of RAW264.7 cells (TRAP stain)
Format: cell-based
Method: Grafts (5×5×1 mm, FlexBone 25% HA-25% TCP) were pre-absorbed with varying amounts of growth factors and cytokines to provide an exogenous supply for remodeling. […] The preferred loading dose of RANKL (10 ng/FlexBone graft) was determined by the osteoclastic differentiation of macrophage RAW264.7, induced by the RANKL released from the graft as indicated by positive TRAP stains (purple) of multinucleated cells on Day 6. […] Finally, the preferred loading dose of rhVEGF165 in stimulating the proliferation of human vascular endothelial cells in culture was determined to be 5 ng/graft.
Materials. The radical inhibitors in the commercial 2-hydroxyethyl methacrylate (HEMA, Aldrich) and ethylene glycol dimethacrylate (EGDMA, Aldrich) were removed via distillation under reduced pressure and by passing through a 4 Å molecular sieve column prior to use, respectively. […] In a typical procedure, 0-5.0 wt % TCH was dissolved in the mixture of freshly distilled monomer HEMA, 2% cross-linker EGDMA and viscous solvent ethylene glycol under bath-sonication, before 25 wt % HA, 25 wt % TCP, and the aqueous radical initiators ammonium persulfate and sodium metasulfite were added and thoroughly mixed (Table I). […] The compressive behavior of FlexBone in fully hydrated state as a function of TCH content was analyzed using a Q800 Dynamic Mechanical Analyzer (DMA, TA Instruments) equipped with a submersion compression fixture. […] An L-square was used to make sure that the sanded top and bottom surfaces were parallel prior to testing, and the final dimensions of each specimen were measured by a digital caliper. […] All stress-strain curves presented are based on the engineering stress and engineering strain recorded, assuming a fixed cross-section of the material defined at the start of the test. […] The release of TCH from FlexBone vs. pHEMA hydrogel in water as a function of time and the initial TCH incorporation was monitored over 1 week at 357.9 nm. […]

B1: rmRANKL: recombinant receptor activator of nuclear factor κB ligand, E. coli expressed (protein, UniProt O35235 139-316, looked up)
Tumor necrosis factor ligand …: FSGAPAMMEGSWLDVAQRGKPEAQPFAHLTINAASIPSGSHKVTLSSWYHDRGWAKISNMTLSNGKLRVNQDGFYYLYANICFRHHETSGSVPTDYLQLMVYVVKTSIKIPSSHNLMKGGSTKNWSGNSEFHFYSINVGGFFKLRAGEEISIQVSNPSLLDPDQDATYFGAFKVQDID
- osteoclast differentiation (continued supplement of 10-ng every other day, day six): formation of TRAP-positive multinucleated osteoclasts
- preferred loading dose (determined by osteoclastic differentiation of RAW264.7, TRAP stains Day 6): 10 ng/FlexBone graft
- osteoclast differentiation (single supplement of 10-ng directly to culture): not sufficient in inducing the osteoclast differentiation
